Measured values taken from patent US20080241109A1.

Biological target: Fas receptor (human) (UniProt P25445)
Experiment: cell-based or functional assay

Chain of UniProt P25445 (P25445 26-335): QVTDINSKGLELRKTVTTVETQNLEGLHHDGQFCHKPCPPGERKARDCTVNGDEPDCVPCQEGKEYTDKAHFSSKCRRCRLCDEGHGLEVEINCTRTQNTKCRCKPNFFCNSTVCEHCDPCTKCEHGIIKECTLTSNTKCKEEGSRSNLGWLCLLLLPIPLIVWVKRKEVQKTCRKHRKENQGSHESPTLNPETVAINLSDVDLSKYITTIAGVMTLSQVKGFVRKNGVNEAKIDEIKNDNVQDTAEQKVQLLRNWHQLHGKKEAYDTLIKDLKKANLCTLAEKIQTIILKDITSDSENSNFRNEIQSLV

| Substance | IC50 (ng/ml), PESMTS survival assay, ARH-77 cells (multiple myeloma) [ng/mL] | IC50 (ng/ml), PESMTS survival assay, DOHH2 cells (follicular lymphoma) [ng/mL] | IC50 (ng/ml), PESMTS survival assay, HL60 (AML-M3) cells [ng/mL] | IC50 (ng/ml), PESMTS survival assay, Jurkat cells (acute T lymphoblastic leukemia) [ng/mL] | IC50 (ng/ml), PESMTS survival assay, K562 cells (chronic myeloid leukaemia) [ng/mL] | IC50 (ng/ml), PESMTS survival assay, NB4 (AML-M3) cells [ng/mL] | IC50 (ng/ml), PESMTS survival assay, Namalwa (ALL-L3) cells [ng/mL] | IC50 (ng/ml), PESMTS survival assay, RPMI-8226 cells (multiple myeloma) [ng/mL] | IC50 (ng/ml), PESMTS survival assay, Raji (ALL-L3) cells [ng/mL] | IC50 (ng/ml), PESMTS survival assay, SC-I cells (follicular lymphoma) [ng/mL] | IC50 (ng/ml), PESMTS survival assay, U266 cells (multiple myeloma) [ng/mL] | IC50 (ng/ml), PESMTS survival assay, OPM2 cells (multiple myeloma) [ng/mL] |
| --- | --- | --- | --- | --- | --- | --- | --- | --- | --- | --- | --- | --- |
| CH11 (antibody) | > 10000 | > 10000 | > 10000 | 6.58 | > 10000 | > 10000 | > 10000 | > 10000 | 15.8 | > 10000 | > 10000 | – |
| MegaFasL (fusion polypeptide m or hACRP30:hFasL) (from UniProt P48023 103-281) (ligand) | 10.4 | 1.17 | 213 | 0.06 | > 10000 | 16 | 57 | 3.57 | 5.6 | > 10000 | 6.2 | 2.19 |
